Consider one molecule from paper PMC8514532 (2021).

The assay addresses PopP2 (149-488), AVI-tagged and biotinylated, the 'WT' of the BLI assay (Ralstonia solanacearum, UniProt Q8Y125 149-488). Briefly: BLI. In general terms: BLI is a label-free optical method that tracks binding on a fibre tip over time.

B1: WRKY DNA-binding domain of the Arabidopsis RRS1-R immune receptor (domain or fragment)
chain: SESKVKKVVSIPAIDEGDLWTWRKYGQKDILGSRFPRGYYRCAYKFTHGCKATKQVQRSETDSNMLAITYLSEHNHPRPT
B1: the affinity, expressed as Kd, was 13 nM.
